Three molecules from patent publication US20260209363A1 (Chugai, published 2026) can be followed below.

Experiment [1] concerns the target T1, human soluble IL-6R (human, UniProt P08887 20-357, limits assumed).
T1 construct: Soluble form; also called sIL6R; Human IL-6R
T1 sequence (looked up): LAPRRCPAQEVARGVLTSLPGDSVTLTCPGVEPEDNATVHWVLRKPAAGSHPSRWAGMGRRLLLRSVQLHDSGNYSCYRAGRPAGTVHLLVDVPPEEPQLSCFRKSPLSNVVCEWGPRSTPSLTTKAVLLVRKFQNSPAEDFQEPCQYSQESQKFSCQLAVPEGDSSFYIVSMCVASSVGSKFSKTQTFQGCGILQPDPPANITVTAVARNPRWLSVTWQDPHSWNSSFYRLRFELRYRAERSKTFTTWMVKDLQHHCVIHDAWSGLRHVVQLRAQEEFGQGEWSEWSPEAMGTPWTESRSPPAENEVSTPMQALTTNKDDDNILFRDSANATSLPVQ
Nature of the experiment: in vivo KD in mouse plasma (albumin present), from total antibody, free and bound sIL6R 5 min after sIL6R; antibody 0.2 mg/kg IV. Here is the method: (§1) Next, free sIL6R in plasma was measured. The concentration of free sIL6R in plasma was measured on a fully automated ELISA system (Gyrolab xP workstation). First, sIL6R prepared at 23.4, 46.9, 93.8, 188, 375, 750, and 1500 ng/mL using a Protein-Free (PBS) Blocking Buffer (Thermo Scientific) was used as solutions for preparing the calibration curve. Mouse plasma samples were used in the measurements without diluting them. A solution of biotin-labeled H54 diluted to 10 micro g/mL using a Protein-Free (PBS) Blocking Buffer was used as a solution of the sIL6R-capturing molecule. Alexa Fluor (registered trademark) 647-labeled anti-human IL-6R antibody (R&D Systems) diluted to 1 micro g/mL using a Protein-Free (PBS) Blocking Buffer was used as a solution of the human IL-6R-detection molecule. PBS (pH 7.4) containing 0.05% TWEEN was used as a washing solution. The calibration curve solutions, mouse plasma samples, sIL6R-capturing molecule solution, sIL6R-detection molecule solution, and the washing solution were placed onto a PCR plate, and then the PCR plate was sealed with a plate sealer. After the PCR plate and the Bioaffy 200 disc were placed in the Gyrolab xP workstation, measurements were taken. Using the data processed by the Gyros Evaluater 3.6.2.30 software and the calibration curve concentrations, the concentration of free sIL6R in plasma was calculated by logistic regression using the XLfit 5.5.0.5 software.
Additionally, bound sIL6R in plasma was measured. The concentration of bound sIL6R in plasma was measured on an electrospray ionization mass spectrometer connected to a high-performance liquid chromatography (LC/ESI-MS/MS). First, H54//IC17 and sIL6R were mixed, and solutions for preparing the calibration curve of bound sIL6R were prepared at theoretical plasma concentrations of 0.0468, 0.467, 4.60, and 20.1 nmol/mL. […]

The target of experiment [2] is T1, human soluble IL-6R. As to the kind of experiment: SPR (Biacore T200), antibody captured on Protein G, human IL-6R as analyte, 37 degrees C, no albumin. Here is the method:
Binding activities of the produced albumin switch molecules against human IL-6R were evaluated using Biacore T200 (Cytiva). As the running buffer, 50 mM Na Phosphate (pH 7.4), 150 mM NaCl, 0.05% Tween20 was used, and the evaluation was performed at 37 degrees C. First, Protein G (CALBIOCHEM) was used as a ligand-capturing molecule. Protein G (CALBIOCHEM) was solid-phased on a Series S Sensor Chip CM4 (Cytiva) using an Amine Coupling Kit (Cytiva). Antibody solution prepared using the running buffer was allowed to interact with this CM4 sensor chip to capture approximately 200 RU of the antibody. Human IL-6R used in the present measurement was prepared by an approach described in WO2018097307 (Example 3-2). Human IL-6R was diluted to 0, 100, and 400 nM with the running buffer, and allowed to bind to the captured antibody. The chip was regenerated using 3 M MgCl₂, and measurements were performed by repeatedly capturing the antibodies. Dissociation constant (KD) of each antibody for human IL-6R was calculated using Biacore T200 Evaluation Software 2.0. Specifically, the association rate constant ka (L/mol/s) and the dissociation rate constant kd (1/s) were calculated by global fitting of the sensorgrams obtained by measurement with the 1:1 Langmuir binding model, and the dissociation constant KD (mol/L) was calculated from these values.
In general terms: SPR reads the build-up and loss of mass on a sensor chip optically.

Another experiment addresses T2, mouse albumin (mouse, UniProt P07724 25-608).
T2 construct: also called recombinant mouse Albumin; mouse serum albumin
Nature of the experiment: SPR (Biacore T200), antibody captured by anti-human Fc antibody, mouse albumin as analyte, 25 degrees C. As to the method:
Binding activities of the produced antibodies against mouse albumin were evaluated using Biacore T200 (Cytiva).
As the running buffer, 50 mM Na Phosphate (pH 7.4), 150 mM NaCl, 0.05% Tween20 was used, and the evaluation was performed at 25 degrees C. First, anti-human Fc antibody (Cytiva) was used as a ligand-capturing molecule. Anti-human Fc antibody (Cytiva) was solid-phased on a Series S Sensor Chip CM4 (Cytiva) using an Amine Coupling Kit (Cytiva). Antibody solution prepared using the running buffer was allowed to interact with this CM4 sensor chip to capture approximately 120 RU of the antibody. Mouse albumin (Bioscience) was diluted to 0 and 300 nM with the running buffer and allowed to bind to the captured antibody. The chip was regenerated using 3 M MgCl₂, and measurements were performed by repeatedly capturing the antibodies. Dissociation constant (KD) of each antibody for mouse albumin was calculated using Biacore T200 Evaluation Software 2.0. Specifically, the association rate constant ka (L/mol/s) and the dissociation rate constant kd (1/s) were calculated by global fitting of the sensorgrams obtained by measurement with the 1:1 Langmuir binding model, and the dissociation constant KD (mol/L) was calculated from these values.

Experiment [3] addresses T1, human soluble IL-6R. As to the kind of experiment: in vivo KD in mouse plasma (albumin present), from total antibody, free and bound sIL6R 5 min after sIL6R; antibody 1 mg/kg IV. Here is the method: as §1
Additionally, bound sIL6R in plasma was measured. The concentration of bound sIL6R in plasma was measured on an electrospray ionization mass spectrometer connected to a high-performance liquid chromatography (LC/ESI-MS/MS). First, H54//IC17 and sIL6R were mixed, and solutions for preparing the calibration curve of bound sIL6R were prepared at theoretical plasma concentrations of 0.0468, 0.467, 4.60, and 20.1 nmol/mL. The solutions for preparing the calibration curve and 1 or 2 micro L of a plasma sample were added to 75 or 150 micro g of magnetic beads (Magnosphere MS300/Carboxyl, JSR) to which anti-delta GK antibodies were solid-phased, and this was shaken at 25 degrees C. for one hour.

The target of experiment [4] is T1, human soluble IL-6R. As to the kind of experiment: Gyrolab xP immunoassay of antibody-antigen complex in C57BL/6J mouse plasma (albumin present), 1 nM antibody, 4 nM antigen.

A word on the Kd: it is the free concentration of one partner at which half of the binding sites on the other are occupied at equilibrium, for simple one-to-one binding. For orientation: koff means the rate constant with which the complex falls apart. As usually defined, the kon is a measure of how fast the partners come together. The low end stands for slower complex formation, the high end for faster complex formation.

B1: ABD094(L)-H54//IC17 (bispecific antibody, human IgG1, kappa)
heavy 1: QVQLQESGPGLVKPSETLSLTCAVSGYSISDDQAWSWVRQPPGEGLEWIGYISYSGITNYNPSLKGRVTISRDTSKNQFSLKLSSVTAADTAAYYCARSLARTTAMDYWGEGTLVTVSSASTKGPSVFPLAPSSKSTSGGTAALGCLVEDYFPEPVTVSWNSGALTSGVHTFPAVLQSSGLYSLSSVVTVPSSSLGTQTYICNVNHKPSNTKVDERVEPKSCDKTHTCPPCPAPELRRGPSVFLFPPKPKDTLMISRTPEVTCVVVDVSHEDPEVKFNWYVDGVEVHNAKTKPREEQYNSTYRVVSVLTVLHQDWLNGKEYKCKVSNKALPAPIEKTISKAKGQPREPQVCTLPPSREEMTKNQVSLSCAVKGFYPSDIAVEWESNGQPENNYKTTPPVLDSDGSFFLVSKLTVDKSRWQQGNVFSCSVMHEALHNHYTQKSLSLSP
light 1: LAEAKEAANAELDSYGVSDFYKRLIDKAKTVEGVEALKDAILAALPDIQMTQSPSSLSASVGDSVTITCQASQDISSYLNWYQQKPGKAPELLIYYGSELHSGVPSRFSGSGSGTDFTFTISSLEAEDAATYYCQQGNSLPYTFGQGTKVEIERTVAAPSVFIFPPSDRKLKSGTASVVCLLNNFYPREAKVQWKVDNALQSGNSQESVTEQDSKDSTYSLSSTLTLSKADYEKHKVYACEVTHQGLSSPVTKSFNRGEC
heavy 2: not shown
light 2: QVQLQQSGPQLVRPGASVKISCKASGYSFTSYWMHWVNQRPGQGLEWIGMIDPSYSETRLNQKFKDKATLTVDKSSSTAYMQLSSPTSEDSAVYYCALYGNYFDYWGQGTTLTVSSASVAAPSVFIFPPSDEQLKSGTASVVCLLNNFYPREAKVQWKVDNALQSGNSQESVTEQDSKDSTYSLSSTLTLSKADYEKHKVYACEVTHQGLSSPVTKSFNRGEC
Consider B1, for which the dissociation constant (Kd) with human soluble IL-6R [1] amounted to 49.1 nM; with human soluble IL-6R [2], 2.65 nM; with mouse albumin it was 11.6 nM; with human soluble IL-6R [3], 57.3 nM. Further, the koff worked out at 0.00118 s⁻¹ in the experiment with human soluble IL-6R [2] and 0.00131 s⁻¹ with mouse albumin. For the same molecule, the kon in the experiment with human soluble IL-6R [2] amounted to 445000 M⁻¹ s⁻¹; with mouse albumin it was 113000 M⁻¹ s⁻¹.

B2: ABD094(H/L).N02-H54//IC17 (bispecific antibody, human IgG1, kappa)
heavy 1: LAEAKEAANAELDSYGVSDFYKRLIDKAKTVEGVEALKDAILAALPGGGGSQVQLQESGPGLVKPSETLSLTCAVSGYSISDDQAWSWVRQPPGEGLEWIGYISYSGITNYNPSLKGRVTISRDTSKNQFSLKLSSVTAADTAAYYCARSLARTTAMDYWGEGTLVTVSSASTKGPSVFPLAPSSKSTSGGTAALGCLVEDYFPEPVTVSWNSGALTSGVHTFPAVLQSSGLYSLSSVVTVPSSSLGTQTYICNVNHKPSNTKVDERVEPKSCDKTHTCPPCPAPELRRGPSVFLFPPKPKDTLMISRTPEVTCVVVDVSHEDPEVKFNWYVDGVEVHNAKTKPREEQYNSTYRVVSVLTVLHQDWLNGKEYKCKVSNKALPAPIEKTISKAKGQPREPQVCTLPPSREEMTKNQVSLSCAVKGFYPSDIAVEWESNGQPENNYKTTPPVLDSDGSFFLVSKLTVDKSRWQQGNVFSCSVMHEALHNHYTQKSLSLSP
light 1: LAEAKEAANAELDSYGVSDFYKRLIDKAKTVEGVEALKDAILAALPGGGGSDIQMTQSPSSLSASVGDSVTITCQASQDISSYLNWYQQKPGKAPELLIYYGSELHSGVPSRFSGSGSGTDFTFTISSLEAEDAATYYCQQGNSLPYTFGQGTKVEIERTVAAPSVFIFPPSDRKLKSGTASVVCLLNNFYPREAKVQWKVDNALQSGNSQESVTEQDSKDSTYSLSSTLTLSKADYEKHKVYACEVTHQGLSSPVTKSFNRGEC
heavy 2: not shown
light 2: QVQLQQSGPQLVRPGASVKISCKASGYSFTSYWMHWVNQRPGQGLEWIGMIDPSYSETRLNQKFKDKATLTVDKSSSTAYMQLSSPTSEDSAVYYCALYGNYFDYWGQGTTLTVSSASVAAPSVFIFPPSDEQLKSGTASVVCLLNNFYPREAKVQWKVDNALQSGNSQESVTEQDSKDSTYSLSSTLTLSKADYEKHKVYACEVTHQGLSSPVTKSFNRGEC
Consider B2, for which the “decrease in the signal derived from the complex, compared to H54//IC17” value in the experiment with human soluble IL-6R [4] was 55%.

B3: ABD094(H/L).N10-H54//IC17 (bispecific antibody, human IgG1, kappa)
heavy 1: LAEAKEAANAELDSYGVSDFYKRLIDKAKTVEGVEALKDAILAALPGQVQLQESGPGLVKPSETLSLTCAVSGYSISDDQAWSWVRQPPGEGLEWIGYISYSGITNYNPSLKGRVTISRDTSKNQFSLKLSSVTAADTAAYYCARSLARTTAMDYWGEGTLVTVSSASTKGPSVFPLAPSSKSTSGGTAALGCLVEDYFPEPVTVSWNSGALTSGVHTFPAVLQSSGLYSLSSVVTVPSSSLGTQTYICNVNHKPSNTKVDERVEPKSCDKTHTCPPCPAPELRRGPSVFLFPPKPKDTLMISRTPEVTCVVVDVSHEDPEVKFNWYVDGVEVHNAKTKPREEQYNSTYRVVSVLTVLHQDWLNGKEYKCKVSNKALPAPIEKTISKAKGQPREPQVCTLPPSREEMTKNQVSLSCAVKGFYPSDIAVEWESNGQPENNYKTTPPVLDSDGSFFLVSKLTVDKSRWQQGNVFSCSVMHEALHNHYTQKSLSLSP
light 1: LAEAKEAANAELDSYGVSDFYKRLIDKAKTVEGVEALKDAILAALPGDIQMTQSPSSLSASVGDSVTITCQASQDISSYLNWYQQKPGKAPELLIYYGSELHSGVPSRFSGSGSGTDFTFTISSLEAEDAATYYCQQGNSLPYTFGQGTKVEIERTVAAPSVFIFPPSDRKLKSGTASVVCLLNNFYPREAKVQWKVDNALQSGNSQESVTEQDSKDSTYSLSSTLTLSKADYEKHKVYACEVTHQGLSSPVTKSFNRGEC
heavy 2: not shown
light 2: QVQLQQSGPQLVRPGASVKISCKASGYSFTSYWMHWVNQRPGQGLEWIGMIDPSYSETRLNQKFKDKATLTVDKSSSTAYMQLSSPTSEDSAVYYCALYGNYFDYWGQGTTLTVSSASVAAPSVFIFPPSDEQLKSGTASVVCLLNNFYPREAKVQWKVDNALQSGNSQESVTEQDSKDSTYSLSSTLTLSKADYEKHKVYACEVTHQGLSSPVTKSFNRGEC
notes: ABD094 linked via N10 linker (G) at VH and VL N-termini of the IL-6R arm; also called ABD094(H/L).NTO-H54//IC17; ABD094(H/L).NO-H54//IC17
With B3, in the experiment with human soluble IL-6R [4], the “decrease in the signal derived from the complex, compared to H54//IC17” value worked out at 95%.
